Measured values as given in paper doi:10.1101/2021.08.20.457142.

B1: MKK6 D-site peptide / p38-alpha (MAPK14) L195A, full length (parent complex)
chain 1: SQSKGKKRNPGLKIPKEAFEQP
chain 2: MSQERPTFYRQELNKTVWEVPERYQNLSPVGSGAYGSVCAAFDTKTGHRVAVKKLSRPFQSIIHAKRTYRELRLLKHMKHENVIGLLDVFTPARSLEEFNDVYLVTHLMGADLNNIVKCQKLTDDHVQFLIYQILRGLKYIHSADIIHRDLKPSNLAVNEDCELKILDFGLARHTDDEMTGYVATRWYRAPEIMANWMHYNQTVDIWSVGCIMAELLTGRTLFPGTDHIDQLKLILRLVGTPGAELLKKISSESARNYIQSLAQMPKMNFANVFIGANPLAVDLLEKMLVLDSDKRITAAQALAHAYFAQYHDPDDEPVAEPYDQSFESRDFLIDEWKSLTYDEVISFVPPPLDQEEMES

Variants of: B1

Variant	screen value
chain 1 N9G	1.54 Z-score of the enrichment rate within one screen of 711 sequences
chain 1 G5L	4 Z-score of the enrichment rate within one screen of 711 sequences
chain 1 P15A, chain 1 K16N	0.0482 Z-score of the enrichment rate within one screen of 711 sequences
chain 1 S3V	1.42 Z-score of the enrichment rate within one screen of 711 sequences
chain 1 S3A, chain 1 P10A	0.521 Z-score of the enrichment rate within one screen of 711 sequences
chain 1 P15A	2.82 Z-score of the enrichment rate within one screen of 711 sequences
chain 1 K16M	1.69 Z-score of the enrichment rate within one screen of 711 sequences
chain 1 S3A, chain 1 I14A	-0.936 Z-score of the enrichment rate within one screen of 711 sequences
chain 1 G5Q	1.53 Z-score of the enrichment rate within one screen of 711 sequences
chain 1 N9D	0.0592 Z-score of the enrichment rate within one screen of 711 sequences
chain 1 L12D	-1.05 Z-score of the enrichment rate within one screen of 711 sequences
chain 1 K16C	0.392 Z-score of the enrichment rate within one screen of 711 sequences
chain 1 R8D	-1 Z-score of the enrichment rate within one screen of 711 sequences
chain 1 P10A, chain 1 K13A	-0.927 Z-score of the enrichment rate within one screen of 711 sequences
chain 1 I14V	-0.578 Z-score of the enrichment rate within one screen of 711 sequences
chain 1 P10A, chain 1 K16A	-0.276 Z-score of the enrichment rate within one screen of 711 sequences
chain 1 K7A	0.591 Z-score of the enrichment rate within one screen of 711 sequences
chain 1 G5D	0.151 Z-score of the enrichment rate within one screen of 711 sequences
chain 1 G5V	1.75 Z-score of the enrichment rate within one screen of 711 sequences
chain 1 K4L	1.3 Z-score of the enrichment rate within one screen of 711 sequences
chain 1 K16E	-0.612 Z-score of the enrichment rate within one screen of 711 sequences
chain 1 K4A, chain 1 K16A	0.0782 Z-score of the enrichment rate within one screen of 711 sequences
chain 1 K4A	0.525 Z-score of the enrichment rate within one screen of 711 sequences
chain 1 L12I	-0.212 Z-score of the enrichment rate within one screen of 711 sequences
chain 1 N9L	1.77 Z-score of the enrichment rate within one screen of 711 sequences

Variant	screen value
chain 1 K7Q	0.531 Z-score of the enrichment rate within one screen of 711 sequences
chain 1 G11A, chain 1 I14A	-0.938 Z-score of the enrichment rate within one screen of 711 sequences
chain 1 I14Q	-1.07 Z-score of the enrichment rate within one screen of 711 sequences
chain 1 P15A, chain 1 K16A	1.54 Z-score of the enrichment rate within one screen of 711 sequences
chain 1 K6T	0.469 Z-score of the enrichment rate within one screen of 711 sequences
chain 1 K16W	0.661 Z-score of the enrichment rate within one screen of 711 sequences
chain 1 P10G	0.241 Z-score of the enrichment rate within one screen of 711 sequences
chain 1 K6I	0.848 Z-score of the enrichment rate within one screen of 711 sequences
chain 1 K7W	1.32 Z-score of the enrichment rate within one screen of 711 sequences
chain 1 G5C	1.42 Z-score of the enrichment rate within one screen of 711 sequences
chain 1 R8A	-0.149 Z-score of the enrichment rate within one screen of 711 sequences
chain 1 K6A, chain 1 K7A	-0.229 Z-score of the enrichment rate within one screen of 711 sequences
chain 1 K4R	2.04 Z-score of the enrichment rate within one screen of 711 sequences
chain 1 N9F	1.54 Z-score of the enrichment rate within one screen of 711 sequences
chain 1 G11H	1.37 Z-score of the enrichment rate within one screen of 711 sequences
chain 1 R8T	0.227 Z-score of the enrichment rate within one screen of 711 sequences
chain 1 K13C	-0.0746 Z-score of the enrichment rate within one screen of 711 sequences
chain 1 R8A, chain 1 P10A	-0.354 Z-score of the enrichment rate within one screen of 711 sequences
chain 1 P10A, chain 1 G11A	0.0844 Z-score of the enrichment rate within one screen of 711 sequences
chain 1 K6S	0.535 Z-score of the enrichment rate within one screen of 711 sequences
chain 1 R8A, chain 1 P15A	0.201 Z-score of the enrichment rate within one screen of 711 sequences
chain 1 R8A, chain 1 N9A	-0.113 Z-score of the enrichment rate within one screen of 711 sequences
chain 1 R8C	-0.13 Z-score of the enrichment rate within one screen of 711 sequences
chain 1 P15F	1.25 Z-score of the enrichment rate within one screen of 711 sequences
chain 1 G11Q	1.09 Z-score of the enrichment rate within one screen of 711 sequences

Variant	screen value
chain 1 K6L	1.2 Z-score of the enrichment rate within one screen of 711 sequences
chain 1 G11L	1 Z-score of the enrichment rate within one screen of 711 sequences
chain 1 G11C	1.37 Z-score of the enrichment rate within one screen of 711 sequences
chain 1 N9Y	1.25 Z-score of the enrichment rate within one screen of 711 sequences
chain 1 P15N	2.75 Z-score of the enrichment rate within one screen of 711 sequences
chain 1 L12M	0.044 Z-score of the enrichment rate within one screen of 711 sequences
chain 1 G5A, chain 1 K13A	-0.263 Z-score of the enrichment rate within one screen of 711 sequences
chain 1 K7A, chain 1 K13A	-0.71 Z-score of the enrichment rate within one screen of 711 sequences
chain 1 K6H	0.638 Z-score of the enrichment rate within one screen of 711 sequences
chain 1 R8M	-0.224 Z-score of the enrichment rate within one screen of 711 sequences
chain 1 L12S	-1.12 Z-score of the enrichment rate within one screen of 711 sequences
chain 1 G5A	1.57 Z-score of the enrichment rate within one screen of 711 sequences
chain 1 N9A, chain 1 K16A	0.162 Z-score of the enrichment rate within one screen of 711 sequences
chain 1 K7C	1.13 Z-score of the enrichment rate within one screen of 711 sequences
chain 1 P15L	1.3 Z-score of the enrichment rate within one screen of 711 sequences
chain 1 K7M	1.7 Z-score of the enrichment rate within one screen of 711 sequences
chain 1 N9A, chain 1 P15A	1.61 Z-score of the enrichment rate within one screen of 711 sequences
chain 1 G11P	-0.211 Z-score of the enrichment rate within one screen of 711 sequences
chain 1 K7F	1.5 Z-score of the enrichment rate within one screen of 711 sequences
chain 1 R8H	0.072 Z-score of the enrichment rate within one screen of 711 sequences
chain 1 K7H	0.776 Z-score of the enrichment rate within one screen of 711 sequences
chain 1 K6F	1.13 Z-score of the enrichment rate within one screen of 711 sequences
chain 1 K7T	0.476 Z-score of the enrichment rate within one screen of 711 sequences
chain 1 K7A, chain 1 I14A	-1.1 Z-score of the enrichment rate within one screen of 711 sequences
chain 1 G5A, chain 1 G11A	1.18 Z-score of the enrichment rate within one screen of 711 sequences
